B1: Connector enhancer of kinase suppressor of ras 2, residues 9 to 71; numbered along this chain, Q8WXI2 (parent)
chain: SKWSPSQVVDWMKGLDDCLQQYIKNFEREKISGDQLLRITHQELEDLGVSRIGHQELILEAVD
B2: Homeobox protein cut-like 1, residues 941 to 1008; numbered along this chain, P39880 (parent)
chain: QEVDTIELTRQVKEKLAKNGICQRIFGEKVLGLSQGSVSDMLSRPKPWSKLTQKGREPFIRMQLWLNG

Variants of: B1
Test: abundance fitness (aPCA) (normalised: wild type 0, dead -1); higher = more abundant; growth selection in yeast, the domain comes from the species named
Conditions: Homo sapiens

Abundance fitness: each site, then its substitutions
V49: Q -0.846, L -0.621, K -0.925, W -0.866, Y -1.07, T -0.857, P -0.875, N -1.1
L57: W -0.987, C -0.394, G -0.635, K 0.021, Q -0.213, F -0.553, A -0.105, Y -0.53, V -0.439, I -0.242, T -0.448, N -0.533, S -0.298, E -0.446, R -0.202, D -0.677, H -0.482, M 0.035, P -0.831
I52: A -0.011, T 0.017, W -0.174, P 0.038, M -0.086, H -0.047, G -0.074, R 0.065, K 0.048, F -0.071, N -0.139, Y -0.067, D -0.123, V 0.002, E -0.058
Q55: V -0.319, T -0.598, K -0.051, Y -1.02, L -0.948, H -0.861, D -0.978, W -1.14, C -0.403, N -1.01, P -0.654, A -0.296, S -0.57, E -0.954, I -0.281, R 0.061
H54: V -0.982, I -1.15, Q -0.944, F -0.886, M -0.819, T -0.874, C -0.835, A -0.727, E -0.412, Y -0.863, R -0.793, N -0.65, G -0.887, K -0.843, W -1.27, S -0.766
E60: W -0.664, P -0.905, I -0.531, D -0.012, R -0.072, G -0.096, H -0.111, N -0.012, S -0.004, V -0.439, C -0.187, F -0.615, M -0.226, Y -0.514, Q 0.006, T -0.057
V62: Y -1.02, F -0.921, H -1.04, D -0.822, M -0.552, G -0.802, R -0.061, W -0.909, S -0.741, T -0.58, A -0.335, N -0.815, Q -0.789, K -0.392, L -0.258, C -0.411, P -0.779, I -0.047, E -0.63
G53: Q 0.061, T 0.042, E 0.085, F -0.079, W -0.151, M -0.009, K 0.077, R 0.046, N 0.084, D 0.086, H -0.015, C -0.05, A 0.037
L59: A -0.653, G -0.674, N -0.741, I -0.241, Y -0.61, H -0.657, M -0.032, V -0.552, R -0.363, T -0.607, E -0.672, Q -0.646, W -0.758, S -0.652, F -0.358, P -0.608, C -0.557, D -0.594, K -0.232
I58: W -0.734, H -0.268, K -0.727, N -0.851, V -0.374, A -0.799, E -0.584, G -0.945, R -0.811, S -0.714, P -0.671, F -0.033, T -0.688, Q -0.696, L -0.096, Y -1.35
S50: G -0.258, F -0.139, N -0.471, K 0.278, D -0.172, H 0.239, L -0.072, A -0.125, M -0.09, Y -0.05, R -0.05, P -0.391, C -0.068, T 0.039, E 0.024, I -0.571
D63: H 0, L -0.176, K -0.059, Y -0.096, Q -0.039, F -0.233, R 0.108, W -0.311, N -0.024, E -0.012, G 0.041, T -0.055, I -0.274, A -0.001, P -0.792, C -0.025
R51: Q 0.071, P -0.021, W -0.115, H 0.018, N 0.063, V 0.061, L -0.015, I 0.03, M -0.042, C 0.082, G -0.083, E 0.088, D 0.081, F 0.006, A 0.031, S 0.088, T 0.063
E56: N -0.046, L -0.158, D -0.011, Y -0.333, V -0.161, G -0.307, P -0.728, H -0.121, T -0.077, A -0.138, S -0.17, W -0.362, R -0.009, I -0.102, K 0.041, C -0.176, M -0.157

Variants of: B2
Test: as above
Conditions: Homo sapiens

Abundance fitness, by site and new letter:
I6: L -0.161, C -0.091, F -0.081, V -0.046, D -0.268, W -0.368, N -0.09, S -0.259, H -0.005, A 0.076, Y -0.129, T -0.029, K 0.089, M 0.06, G -0.049, R -0.053
E7: A 0.14, S 0.172, I -0.565
V3: L 0.008, G -0.154, R -0.051, P -0.111, H -0.199, K -0.136, Y -0.227, M -0.045, F -0.063, E -0.037, C -0.486, A -0.133, W -0.528, I 0.19, S -0.067, T -0.112, N -0.335, D -0.174, Q -0.032
L8: A 0.051, C -0.205, D 0.076
T5: H -0.145, D -0.412, E -0.204, Y -0.192, F -0.235, V -0.383, W -0.176, S -0.177, C -0.233, Q -0.086, A -0.253, P -0.354, R -0.157, G -0.329, I -0.177, M -0.02, K -0.121, L -0.135, N -0.223
E2: S -0.135, H -0.317, N -0.227, Q -0.093, R -0.157, L -0.376, I -0.085, P -0.206, D -0.283, C -0.375, V -0.16, W -0.738, K -0.074, A -0.273, Y -0.329, M -0.09, G -0.081
D4: G -0.312, E -0.093, V -0.581, L -0.572, Y -0.43, A -0.376, W -0.552, S -0.261, H -0.346, N -0.097, Q -0.328, C -0.243, F -0.35, P -0.265, M -0.153, R -0.368, T -0.25, I -0.503
Q1: T -0.038, Y -0.34, N -0.412, L -0.218, S 0.045, K 0.076, A 0.167, P -0.277, M 0.09, R -0.046, H -0.673, E 0.214, V -0.201, C -0.062, G 0.06, F -0.088

— the Human Domainome abundance scans (Beltran et al. 2025)
